In patent EP4814010A1 (Shanghai Huaota Biopharmaceutical Co., Ltd., dated 2026):
Changes are numbered by the printed parent chain.

Experiments:
[1] = biological target: T1, Trypsin inhibitor type 1-S from Glycine max (Glycine max, UniProt P01070 25-205); assay: SPR (Biacore 8K), trypsin inhibitor amine-coupled on CM5, antibody as analyte
T1 sequence (looked up): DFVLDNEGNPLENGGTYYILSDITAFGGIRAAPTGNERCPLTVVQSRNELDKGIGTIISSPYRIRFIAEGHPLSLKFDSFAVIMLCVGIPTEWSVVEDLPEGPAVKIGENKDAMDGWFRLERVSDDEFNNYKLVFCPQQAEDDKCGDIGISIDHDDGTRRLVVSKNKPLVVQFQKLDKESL

[2] = biological target: T2, Cynomolgus IL-11, No Tag (Sino Biological Inc., 90925-CNCE) (cynomolgus, UniProt P20808 22-199); assay: SPR (Biacore 8K), cynomolgus IL-11 amine-coupled on CM5, single-cycle kinetics, 1:1 model
T2 construct: Bought protein; also called monkey IL-11
T2 sequence (looked up): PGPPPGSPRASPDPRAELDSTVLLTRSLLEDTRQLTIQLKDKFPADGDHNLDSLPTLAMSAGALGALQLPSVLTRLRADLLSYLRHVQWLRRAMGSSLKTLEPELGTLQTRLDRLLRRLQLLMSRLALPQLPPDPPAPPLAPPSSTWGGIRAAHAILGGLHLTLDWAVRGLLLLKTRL

[3] = biological target: T3, Mouse IL-11, No Tag (Sino Biological, 50117-MNCE) (mouse, UniProt P47873 22-199); assay: SPR (Biacore T200), antibody captured on Protein A chip, IL-11 as analyte, 1:1 model
T3 construct: Bought protein
T3 sequence (looked up): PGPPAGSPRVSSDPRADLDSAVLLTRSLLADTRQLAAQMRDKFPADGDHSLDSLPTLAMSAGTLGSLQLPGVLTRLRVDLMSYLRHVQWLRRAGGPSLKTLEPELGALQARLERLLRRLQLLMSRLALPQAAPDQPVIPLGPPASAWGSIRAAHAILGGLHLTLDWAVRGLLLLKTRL

[4] = biological target: T4, Human IL-11, No Tag (Sino Biological, 12225-HNCE) (human, UniProt P20809 22-199); assay: as above
T4 construct: Bought protein; also called IL-11 Protein, Human, Recombinant
T4 sequence (looked up): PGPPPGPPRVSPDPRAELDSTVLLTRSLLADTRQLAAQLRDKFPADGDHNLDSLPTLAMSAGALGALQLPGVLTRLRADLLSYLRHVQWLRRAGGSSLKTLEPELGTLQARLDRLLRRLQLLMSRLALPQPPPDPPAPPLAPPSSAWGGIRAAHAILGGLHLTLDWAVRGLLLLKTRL

[5] = biological target: T5, Recombinant Rat Interleukin-11(IL-11), hFc Tag (CusaBio, CSB-MP859561RAd9) (rat, UniProt Q99MF5 22-199); assay: BLI (Octet RH96), biotinylated sample on SA sensor, rat IL-11 as analyte, 1:1 global fit
T5 construct: Bought fusion protein; also called Rat IL-11; not shown: hFc tag
T5 sequence (looked up): T3 sequence (looked up) with S50N, L84F, G94A, V137A, I138V

binding result [1]: no binding
Kd [2]: 4.56 nM
koff [2]: 0.00221 s⁻¹
kon [2]: 485000 M⁻¹ s⁻¹
Kd [3]: 2.2 nM
koff [3]: 0.00107 s⁻¹
kon [3]: 487000 M⁻¹ s⁻¹
Kd [4]: 1.93 nM
koff [4]: 0.00133 s⁻¹
kon [4]: 689000 M⁻¹ s⁻¹
Kd [5]: 1.17 nM
koff [5]: 5.57e-05 s⁻¹
kon [5]: 47500 M⁻¹ s⁻¹
B1: anti-IL-11 monoclonal heavy chain antibody 700068 (antibody, V domains shown)
VH: QVQLVESGGGLVQPGGSLRLSCAASGSIASIYTMAWYRQAPGKQRELVALSTNRGATDYADFVKGRFTISRDNAENTMYLQMNSLKPEDTAVYYCNGVASSWSTGFVASWGQGTQVTVSS
notes: also called 700068 heavy chain antibody
